T1: extracellular domain of human leptin receptor with C-terminal human-Fc tag (human, UniProt P48357 22-839)
T1 chain: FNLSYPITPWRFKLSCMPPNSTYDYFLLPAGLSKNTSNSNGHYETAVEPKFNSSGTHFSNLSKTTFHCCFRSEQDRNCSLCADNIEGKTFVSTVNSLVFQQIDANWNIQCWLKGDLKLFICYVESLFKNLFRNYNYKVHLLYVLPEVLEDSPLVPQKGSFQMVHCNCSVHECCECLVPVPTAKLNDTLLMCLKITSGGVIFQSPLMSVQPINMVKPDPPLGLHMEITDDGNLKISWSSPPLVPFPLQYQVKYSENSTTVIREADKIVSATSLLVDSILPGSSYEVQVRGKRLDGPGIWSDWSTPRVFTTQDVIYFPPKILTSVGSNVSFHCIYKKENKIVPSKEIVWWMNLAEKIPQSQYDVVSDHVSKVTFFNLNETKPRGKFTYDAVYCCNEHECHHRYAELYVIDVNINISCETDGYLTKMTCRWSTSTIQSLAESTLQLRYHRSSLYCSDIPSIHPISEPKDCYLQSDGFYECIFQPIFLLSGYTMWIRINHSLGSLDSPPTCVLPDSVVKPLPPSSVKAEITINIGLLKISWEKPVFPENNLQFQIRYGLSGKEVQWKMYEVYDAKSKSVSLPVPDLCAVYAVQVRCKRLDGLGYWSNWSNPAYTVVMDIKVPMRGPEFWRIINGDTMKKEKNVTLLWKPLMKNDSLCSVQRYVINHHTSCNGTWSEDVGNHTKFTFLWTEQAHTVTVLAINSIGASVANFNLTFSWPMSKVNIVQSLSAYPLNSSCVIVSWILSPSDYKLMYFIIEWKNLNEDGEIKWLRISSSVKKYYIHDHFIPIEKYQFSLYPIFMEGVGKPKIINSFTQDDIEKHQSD


What was measured:
[1] = molecular target: T2, mLepR in mouse brain tissue sections (paraventricular nucleus of the hypothalamus) (Mus musculus, C57BL/6 (wild type, …, UniProt P48356)); test: immunostaining of cells or tissue; 30 um brain sections of wild type, ob/ob and db/db mice, fixed in 4% PFA; staining as for cells; paraventricular nucleus of the hypothalamus; conditions: one partner purified
T2 construct: leptin receptor (LepR), mouse, endogenous in hypothalamus; Fixed tissue sections; also called LepR in tissue; source: endogenous, brain sections of wild type, ob/ob and db/db C57BL/6 mice

[2] = molecular target: T1, extracellular domain of human leptin …; test: ELISA; competition with coated leptin, 20 nM hLepR-ECD-Fc
[3] = molecular target: T3, extracellular domain of human leptin receptor with C-terminal 6xHis tag (human, UniProt P48357); test: SPR; Biacore T200; LepR-ECD with His tag immobilised on CM5 chip by amine coupling; leptin-Fc and scFv-Fc antibodies in PBS pH 7.4, 1:2 serial dilutions, five concentrations, as analytes; 1:1 binding model; conditions: both partners purified
T3 construct: leptin receptor (LepR), human, extracellular domain; also called hLepR-ECD; hLepR-ECD-His; source: HEK293F, purified from supernatant (HisTrap FF Crude); not shown: 6xHis, C-terminal, kept

[4] = molecular target: T4, mouse leptin receptor tagged with eYFP, on HEK293 cells (Mus musculus, UniProt P48356); test: immunostaining of cells or tissue; transiently transfected HEK293 cells expressing LepR-eYFP, fixed in 4% PFA; primary antibodies 5 ug/mL at 4 C overnight; Alexa Fluor 555 goat anti-human IgG; conditions: one partner purified
T4 construct: leptin receptor (LepR), mouse; also called mLepR-eYFP; mLepR; source: HEK293, transiently transfected, on cells (fixed); not shown: eYFP, C-terminal, kept

[5] = molecular target: human leptin receptor tagged with eYFP, on HEK293 cells (Homo sapiens, UniProt P48357); test: cell-based or functional assay
[6] = molecular target: T5, extracellular domain of mouse leptin receptor with C-terminal 6xHis tag (mouse, UniProt P48356); test: SPR; Biacore T200; LepR-ECD with His tag immobilised on CM5 chip by amine coupling; leptin-Fc and scFv-Fc antibodies in PBS pH 7.4, 1:2 serial dilutions, five concentrations, as analytes; 1:1 binding model; conditions: both partners purified
T5 construct: leptin receptor (LepR), mouse, extracellular domain; also called mLepR-ECD; mLepR-ECD-His; source: HEK293F, purified from supernatant (HisTrap FF Crude); not shown: 6xHis, C-terminal, kept
T5 sequence (P48356 22-839): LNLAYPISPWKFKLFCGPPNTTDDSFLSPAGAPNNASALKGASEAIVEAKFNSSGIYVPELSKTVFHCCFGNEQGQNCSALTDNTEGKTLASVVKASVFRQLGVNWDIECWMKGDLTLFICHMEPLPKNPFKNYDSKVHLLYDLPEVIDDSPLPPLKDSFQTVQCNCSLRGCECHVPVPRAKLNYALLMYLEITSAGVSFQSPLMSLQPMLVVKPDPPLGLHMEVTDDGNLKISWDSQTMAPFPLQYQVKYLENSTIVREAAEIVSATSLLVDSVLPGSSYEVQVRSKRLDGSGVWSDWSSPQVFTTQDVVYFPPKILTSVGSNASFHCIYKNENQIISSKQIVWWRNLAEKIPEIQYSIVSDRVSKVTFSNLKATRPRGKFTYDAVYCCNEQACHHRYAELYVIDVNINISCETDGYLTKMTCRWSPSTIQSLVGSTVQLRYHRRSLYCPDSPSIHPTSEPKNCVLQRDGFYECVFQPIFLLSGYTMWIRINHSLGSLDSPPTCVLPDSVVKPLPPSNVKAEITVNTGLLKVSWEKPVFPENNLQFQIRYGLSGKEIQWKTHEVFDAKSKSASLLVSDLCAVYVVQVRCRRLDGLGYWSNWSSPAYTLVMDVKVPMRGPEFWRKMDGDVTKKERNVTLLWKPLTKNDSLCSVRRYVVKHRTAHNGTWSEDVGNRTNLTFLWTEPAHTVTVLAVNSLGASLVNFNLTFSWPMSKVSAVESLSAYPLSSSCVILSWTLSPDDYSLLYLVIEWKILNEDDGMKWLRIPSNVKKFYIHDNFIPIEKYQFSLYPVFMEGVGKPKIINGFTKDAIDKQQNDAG

T2 sequence (P48356 22-839): as above
T4 sequence (P48356 22-1162): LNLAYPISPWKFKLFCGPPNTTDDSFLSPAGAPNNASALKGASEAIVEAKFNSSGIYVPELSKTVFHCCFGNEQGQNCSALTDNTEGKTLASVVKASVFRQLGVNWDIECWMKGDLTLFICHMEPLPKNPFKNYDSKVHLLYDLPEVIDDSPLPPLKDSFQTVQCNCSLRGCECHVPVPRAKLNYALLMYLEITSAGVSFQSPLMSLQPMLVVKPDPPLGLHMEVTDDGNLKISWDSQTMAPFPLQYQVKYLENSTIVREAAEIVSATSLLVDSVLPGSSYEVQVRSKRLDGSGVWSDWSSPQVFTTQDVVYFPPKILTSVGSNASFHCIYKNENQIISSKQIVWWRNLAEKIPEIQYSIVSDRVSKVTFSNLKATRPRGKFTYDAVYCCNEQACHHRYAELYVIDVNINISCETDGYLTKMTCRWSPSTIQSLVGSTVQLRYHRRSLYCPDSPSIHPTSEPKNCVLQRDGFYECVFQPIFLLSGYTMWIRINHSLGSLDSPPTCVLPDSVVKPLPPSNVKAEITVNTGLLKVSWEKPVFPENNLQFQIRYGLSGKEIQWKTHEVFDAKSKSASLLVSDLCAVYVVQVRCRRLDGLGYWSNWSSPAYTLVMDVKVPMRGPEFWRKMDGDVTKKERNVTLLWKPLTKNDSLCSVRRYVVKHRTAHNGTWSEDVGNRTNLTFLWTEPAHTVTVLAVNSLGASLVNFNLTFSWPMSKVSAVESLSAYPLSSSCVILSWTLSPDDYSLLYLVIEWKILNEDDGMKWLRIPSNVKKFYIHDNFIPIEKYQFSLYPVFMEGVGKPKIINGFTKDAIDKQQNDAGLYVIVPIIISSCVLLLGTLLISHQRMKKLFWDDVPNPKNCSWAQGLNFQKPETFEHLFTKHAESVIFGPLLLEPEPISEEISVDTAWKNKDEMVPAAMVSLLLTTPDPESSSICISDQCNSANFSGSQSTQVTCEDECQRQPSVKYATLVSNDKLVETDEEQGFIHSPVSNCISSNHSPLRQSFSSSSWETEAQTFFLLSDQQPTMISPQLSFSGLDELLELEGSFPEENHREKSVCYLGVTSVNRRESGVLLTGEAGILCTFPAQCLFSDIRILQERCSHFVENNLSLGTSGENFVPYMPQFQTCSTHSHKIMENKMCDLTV

Binder	binding result [1]	IC50 [2] [nM]	Kd [3] [nM]	koff [3] [s⁻¹]	kon [3] [M⁻¹ s⁻¹]	binding result [4]	EC50, hLepR-luciferase (SIE luciferase reporter of STAT3 phosphorylation, HEK293) [5] [nM]	Kd [6] [nM]
single-chain combinatorial antibody Ab06 (scFv-Fc) (scFv, V domains shown, identical to Ab11 except four residues in CDR3H; source: HEK293F, purified from supernatant (HiTrap Protein A)) VH: QVQLVESGGGVVQPGRSLRLSCAASGFTFSSYGMHWVRQAPGKGLEWVAVISYDGSNKYYADSVKGRFTISRDNSKNTLYLQMNSLRAEDTAVYYCAKSLRNSFDYWGQGTLVTVSS VL: EIVLTQSPGTLSLSPGERATLSCRASQSVSSNYLAWYQQKPGQAPRLLIYGASSRPTGIPDRFSGSGSGTDFTLTISRLEPEDFAVYYCQQYAASPLTFGGGTKLEIK	no binding	40	7.5	0.052	6.9e+06	no binding (tested: 5 ug/mL)	3.2	–
single-chain combinatorial antibody Ab11 (scFv-Fc) (scFv, V domains shown, CDR3H holds the motif ENYF; source: HEK293F, purified from supernatant (HiTrap Protein A)) VH: QVQLVESGGGVVQPGRSLRLSCAASGFTFSSYGMHWVRQAPGKGLEWVAVISYDGSNKYYADSVKGRFTISRDNSKNTLYLQMNSLRAEDTAVYYCAKGYENYFDYWGQGTLVTVSS VL: EIVLTQSPGTLSLSPGERATLSCRASQSVSSNYLAWYQQKPGQAPRLLIYGASSRPTGIPDRFSGSGSGTDFTLTISRLEPEDFAVYYCQQYAASPLTFGGGTKLEIK	–	–	–	–	–	–	–	200

— publication PMC7435230, “Selection of a Full Agonist Combinatorial Antibody that Rescues Leptin Deficiency In Vivo” (Advanced Science, 2020)
